A word on the Kd: it is the concentration at which binding is half-saturated. A high value points to lower affinity.

We go through 1 molecule from US20210290678A1 (published 2021).

In test [1] the target is T1, human protein tyrosine kinase 7 (PTK7) (human, UniProt Q13308 31-1070).
T1 chain: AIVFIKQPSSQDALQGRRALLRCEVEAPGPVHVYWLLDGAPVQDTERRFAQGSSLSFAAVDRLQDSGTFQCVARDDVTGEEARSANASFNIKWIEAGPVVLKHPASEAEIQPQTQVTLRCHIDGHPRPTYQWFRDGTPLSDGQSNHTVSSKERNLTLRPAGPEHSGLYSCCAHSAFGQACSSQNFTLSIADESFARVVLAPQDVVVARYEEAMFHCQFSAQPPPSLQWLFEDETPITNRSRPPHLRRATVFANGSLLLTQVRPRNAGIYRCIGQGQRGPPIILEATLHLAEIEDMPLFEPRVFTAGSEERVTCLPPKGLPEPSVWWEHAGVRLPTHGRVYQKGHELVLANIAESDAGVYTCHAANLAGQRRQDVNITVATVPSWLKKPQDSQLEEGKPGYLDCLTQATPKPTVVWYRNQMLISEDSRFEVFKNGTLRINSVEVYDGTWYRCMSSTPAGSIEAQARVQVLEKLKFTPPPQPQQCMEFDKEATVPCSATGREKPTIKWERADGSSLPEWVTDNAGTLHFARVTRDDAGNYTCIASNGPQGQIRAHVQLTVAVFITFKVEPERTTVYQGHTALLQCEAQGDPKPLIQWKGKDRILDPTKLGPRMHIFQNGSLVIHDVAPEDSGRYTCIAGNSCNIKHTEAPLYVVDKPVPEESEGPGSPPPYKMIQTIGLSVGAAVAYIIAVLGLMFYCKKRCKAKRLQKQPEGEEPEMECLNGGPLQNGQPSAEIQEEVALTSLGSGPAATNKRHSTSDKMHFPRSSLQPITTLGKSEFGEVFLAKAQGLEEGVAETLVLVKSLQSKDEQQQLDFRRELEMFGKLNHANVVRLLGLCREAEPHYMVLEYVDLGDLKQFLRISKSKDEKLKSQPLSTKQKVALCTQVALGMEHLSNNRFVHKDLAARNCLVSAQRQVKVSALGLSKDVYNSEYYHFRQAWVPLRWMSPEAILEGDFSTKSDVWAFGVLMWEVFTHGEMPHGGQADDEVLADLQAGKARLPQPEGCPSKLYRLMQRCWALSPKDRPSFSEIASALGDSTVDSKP
The test is described as follows: flow cytometry cell binding titration; HCC70 human cells; unit from dose axis.

Another test concerns the target T2, murine PTK7 (murine, UniProt Q8BKG3 23-1062).
T2 chain: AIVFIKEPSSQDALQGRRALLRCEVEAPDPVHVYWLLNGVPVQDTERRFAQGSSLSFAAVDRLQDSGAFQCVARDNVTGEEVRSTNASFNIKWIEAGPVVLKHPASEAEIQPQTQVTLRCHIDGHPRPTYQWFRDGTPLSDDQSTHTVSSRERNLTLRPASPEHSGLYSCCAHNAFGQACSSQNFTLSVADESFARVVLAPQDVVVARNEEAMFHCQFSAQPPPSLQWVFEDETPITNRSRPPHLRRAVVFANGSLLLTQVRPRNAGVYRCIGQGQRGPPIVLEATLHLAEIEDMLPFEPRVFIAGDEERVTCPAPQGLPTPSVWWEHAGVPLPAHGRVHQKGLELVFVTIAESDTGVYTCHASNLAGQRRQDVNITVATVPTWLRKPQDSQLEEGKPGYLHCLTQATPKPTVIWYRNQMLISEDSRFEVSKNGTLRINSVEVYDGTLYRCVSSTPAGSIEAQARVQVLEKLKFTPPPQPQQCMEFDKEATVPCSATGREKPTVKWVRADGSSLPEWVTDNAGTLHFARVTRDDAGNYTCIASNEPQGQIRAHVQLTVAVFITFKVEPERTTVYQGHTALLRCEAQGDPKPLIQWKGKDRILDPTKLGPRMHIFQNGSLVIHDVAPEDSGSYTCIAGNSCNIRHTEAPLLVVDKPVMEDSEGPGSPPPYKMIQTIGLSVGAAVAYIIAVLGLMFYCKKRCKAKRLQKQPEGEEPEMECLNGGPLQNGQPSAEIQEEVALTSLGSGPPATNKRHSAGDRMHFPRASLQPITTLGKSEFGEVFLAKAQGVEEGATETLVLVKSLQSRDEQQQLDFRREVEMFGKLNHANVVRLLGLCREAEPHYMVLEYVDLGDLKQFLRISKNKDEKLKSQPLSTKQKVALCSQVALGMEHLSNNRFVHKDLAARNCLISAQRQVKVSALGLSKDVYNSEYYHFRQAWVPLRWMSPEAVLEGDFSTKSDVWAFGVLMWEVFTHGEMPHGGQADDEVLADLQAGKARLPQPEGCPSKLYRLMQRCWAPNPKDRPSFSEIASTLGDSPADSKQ
The experiment in a line: flow cytometry cell binding titration; 3T3L1 murine cells; unit from dose axis.

B1: CTX181 mAb (custom recombinant monoclonal anti-PTK7 antibody, Creative Biolabs) (antibody, V domains shown)
VH: QVQLVESGGGVVQPGRSLRLSCAASGFTFSSYGMHWVRQAPGKGLEWVAVIWDDGSNKYYVDSVKGRFTISRDNSKNTLYLQMNSLRAEDTAVYYCARDDYYGSGSFNSYYGTDVWGQGTTVTVSS
VL: EIVLTQSPATLSLSPGERATLSCRASQSVSIYLAWYQQKPGQAPRLLIYDASNRATGIPARFSGSGSGTDFTLTISSLEPEDFAVYYCQQRSNWPPFTFGPGTKVDIKR
On to B1, for which the Kd was 1.53 nM in test [1] and 0.662 nM with murine PTK7.
